Data from patent US20220395548A1.

Assays:
[1] = target: gp120 of HIV-1NL4-3 (on virus particles) (HIV-1 (NL4-3)); assay: immunoblot with 2G12, band value, 1st column: Day 5, - MoMo30 by the order of the lanes above
[2] = target: gp120 of HIV-1NL4-3 (on virus particles) (HIV-1 (NL4-3)); assay: immunoblot with 2G12, band value, 2nd column: Day 8, - MoMo30 by the order of the lanes above
[3] = target: gp120 of HIV-1NL4-3 (on virus particles) (HIV-1 (NL4-3)); assay: immunoblot with 2G12, band value, 4th column: Day 5, + MoMo30 by the order of the lanes above
[4] = target: gp120 of HIV-1NL4-3 (on virus particles) (HIV-1 (NL4-3)); assay: immunoblot with 2G12, band value, 5th column: Day 8, + MoMo30 by the order of the lanes above
[5] = target: gp120 of HIV-1NL4-3 (on virus particles) (HIV-1 (NL4-3)); assay: immunoblot with 2G12, band value, 3rd column: Day 12, - MoMo30 by the order of the lanes above
[6] = target: gp120 of HIV-1NL4-3 (on virus particles) (HIV-1 (NL4-3)); assay: immunoblot with 2G12, band value, 6th column: Day 12, + MoMo30 by the order of the lanes above

Substance “monoclonal antibody 2G12 (AIDS reagent program; cat #1476)” has a gp120 (row of the table under the blot) [1] of 65, a gp120 (row of the table under the blot) [2] of 51 and a gp120 (row of the table under the blot) [3] of 87. For the same substance, the gp120 (row of the table under the blot) [4] was 51, the gp120 (row of the table under the blot) [5] was 100 and the gp120 (row of the table under the blot) [6] was 16.
